Common to all, as to test: cell-based or functional assay
Assay [1] deals with recombinant human Rab6A (Jena Biosciences) (human) (UniProt P20340).
Assay [2] deals with recombinant human Rab27A (Abnova Corporation) (human) (UniProt P51159).
Assay [3] deals with recombinant human Rab6A (Jena Biosciences) (human) (UniProt P20340). This is another data set of the same source.

The values that follow come from patent US20200341015A1.

UniProt P51159, sequence (P51159 whole entry): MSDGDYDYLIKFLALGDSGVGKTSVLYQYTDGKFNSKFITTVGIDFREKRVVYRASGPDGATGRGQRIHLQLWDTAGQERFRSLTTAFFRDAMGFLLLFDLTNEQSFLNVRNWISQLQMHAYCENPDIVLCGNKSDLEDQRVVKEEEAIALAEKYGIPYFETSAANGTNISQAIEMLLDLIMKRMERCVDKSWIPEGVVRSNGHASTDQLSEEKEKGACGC
UniProt P20340, sequence (P20340 whole entry): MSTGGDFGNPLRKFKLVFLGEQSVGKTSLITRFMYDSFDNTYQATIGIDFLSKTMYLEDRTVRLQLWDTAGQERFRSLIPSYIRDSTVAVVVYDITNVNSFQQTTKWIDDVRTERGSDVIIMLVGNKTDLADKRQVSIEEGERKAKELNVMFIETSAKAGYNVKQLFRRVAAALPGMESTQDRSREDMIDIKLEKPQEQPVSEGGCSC

Consider “recombinant fish His-REP1 (Jena Biosciences)”, for which the band intensity of biotinylated Rab6a in positive controls, fold against the Rab27a data of FIG. 2 in assay [1] turned out to be 100 fold.

B1: human Rab escort protein 1 (REP1) (protein, UniProt P24386 1-653, looked up)
chain: MADTLPSEFDVIVIGTGLPESIIAAACSRSGRRVLHVDSRSYYGGNWASFSFSGLLSWLKEYQENSDIVSDSPVWQDQILENEEAIALSRKDKTIQHVEVFCYASQDLHEDVEEAGALQKNHALVTSANSTEAADSAFLPTEDESLSTMSCEMLTEQTPSSDPENALEVNGAEVTGEKENHCDDKTCVPSTSAEDMSENVPIAEDTTEQPKKNRITYSQIIKEGRRFNIDLVSKLLYSRGLLIDLLIKSNVSRYAEFKNITRILAFREGRVEQVPCSRADVFNSKQLTMVEKRMLMKFLTFCMEYEKYPDEYKGYEEITFYEYLKTQKLTPNLQYIVMHSIAMTSETASSTIDGLKATKNFLHCLGRYGNTPFLFPLYGQGELPQCFCRMCAVFGGIYCLRHSVQCLVVDKESRKCKAIIDQFGQRIISEHFLVEDSYFPENMCSRVQYRQISRAVLITDRSVLKTDSDQQISILTVPAEEPGTFAVRVIELCSSTMTCMKGTYLVHLTCTSSKTAREDLESVVQKLFVPYTEMEIENEQVEKPRILWALYFNMRDSSDISRSCYNDLPSNVYVCSGPDCGLGNDNAVKQAETLFQEICPNEDFCPPPPNPEDIILDGDSLQPEASESSAIPEANSETFKESTNLGNLEESSE
As to B1, in assay [2], the band density values of biotinylated Rab substrate, condition 4 is 0.8; the band density values of biotinylated Rab substrate, condition 7 was found to be 0.3; the baseline biotin incorporation in untransduced samples (band density) is 0.577 a.u; the best-fit top of the curve, biotin incorporation against MOI of rAAV2/2-REP1 (4-PL) was determined as 53.8 a.u. In assay [3], the band density of biotinylated substrate, fold against Rab27a in matching conditions was under 2.5 fold; the band density values of biotinylated Rab substrate, condition 12 amounted to 1.8; the band density values of biotinylated Rab substrate, condition 15 came to 0.75; the baseline biotin incorporation in untransduced samples (band density) amounted to 5.01 a.u. Further, in assay [3], the best-fit top of the curve, biotin incorporation against MOI of rAAV2/2-REP1 (4-PL) came out at 92.8 a.u; the biotinylated substrate, fold against Rab27a (untransduced 293 lysate) was 2.5 fold; the strength of the WB signal of biotinylated Rab6a, fold against the Rab27a data of FIG. 2 (AAV-REP1 transduced cells) worked out at 10 fold.
